Where two headings read alike, the source gives them in different places. Values belong to the binder of their own block, whether it stands above or below them.
Tests used:
recombinant human TL1A [1] = molecular target: T1, recombinant human TL1A (human, UniProt O95150 71-251); assay: cell-based or functional assay
T1 chain: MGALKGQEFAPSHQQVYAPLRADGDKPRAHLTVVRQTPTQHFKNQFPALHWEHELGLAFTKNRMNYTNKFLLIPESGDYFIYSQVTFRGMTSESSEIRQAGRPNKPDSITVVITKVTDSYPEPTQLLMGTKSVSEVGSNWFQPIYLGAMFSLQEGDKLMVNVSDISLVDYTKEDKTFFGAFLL

recombinant human TL1A [2] = molecular target: T1, recombinant human TL1A; assay: competition ELISA, coated TL1A, competitor bio-TL1A-0002
Experimental: (§1) For this competition ELISA assay procedure, 96-well high binding plates (Corning, product number 3590) were coated with 1 μg/mL recombinant TL1A in 100 μL/well in Phospate Buffered Saline (PBS) overnight at 4° C. Plates were then blocked in PBS+0.02% casein solution and washed with PBS+0.05% Tween-20 following standard ELISA protocol. […] Plates were washed with PBS+0.05% Tween-20 following standard ELISA protocol, and Streptavidin-HRP (Southern Biotech, product number 7100-05) diluted to 1:10,000 in assay buffer was added to plates and incubated for 25-30 minutes at room temperature. Next, the plates were washed with PBS+0.05% Tween-20 following standard ELISA protocol, and then TMB substrate (BioFX Laboratories, catalog number TMBW-0100-01) was added to plates. Reactions were stopped after approximately 5 minutes by adding 0.18 M ortho-phosphoric acid to each well and absorbance was read at 450 nm.

[3] = molecular target: T2, full-length human TL1A on CHO-K1 cells (human, UniProt O95150 1-251); assay: flow cytometry on CHO-K1 cells stably expressing full-length human TL1A, PE anti-human IgG, median fluorescent intensity
T2 construct: whole, on cells; also called cells over-expressing human TL1A
T2 sequence (looked up): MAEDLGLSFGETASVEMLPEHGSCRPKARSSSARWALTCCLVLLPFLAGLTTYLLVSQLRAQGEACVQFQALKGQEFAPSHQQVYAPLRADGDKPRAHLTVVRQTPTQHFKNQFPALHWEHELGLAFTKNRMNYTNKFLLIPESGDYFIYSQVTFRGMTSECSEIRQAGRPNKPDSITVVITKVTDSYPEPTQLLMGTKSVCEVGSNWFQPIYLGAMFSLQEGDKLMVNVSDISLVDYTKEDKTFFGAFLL
Experimental: A cell binding assay was performed to examine if the panel of [xTL1A] bivalent antibody variants could bind to human TL1A over-expressed on the cell surface. […] [xTL1A] bivalent antibody variants were incubated with cells on ice for 30-60 minutes at a concentration of either 1 μg/mL or 20 μg/mL. Cells were pelleted by centrifugation at 1500 RPM for 5 minutes at 4° C. and supernatant was discarded by aspiration. The cells were washed three times with DPBS with 4% FBS buffer as described. Cells were resuspended in 100 μL of PE-anti-human IgG (Life technologies Catalog number H10104) diluted 1:500 in DPBS with 4% FBS buffer and incubated on ice for 15 minutes. Cells were washed three times as described and resuspended in 200 μL of DPBS with 4% FBS buffer, then run on a flow cytometry instrument.

recombinant human TL1A [4] = molecular target: T1, recombinant human TL1A; assay: competition ELISA on plate-coated recombinant human TL1A, competitor biotinylated TL1A-0260 (bio-TL1A-0260), streptavidin-HRP, OD450
Experimental: as §1, with “Laboratories Catalog” for “Laboratories, catalog”

recombinant human TL1A [5] = molecular target: T1, recombinant human TL1A; assay: as above
Experimental: as §1, with “Laboratories Catalog” for “Laboratories, catalog”

recombinant human TL1A [6] = molecular target: T1, recombinant human TL1A; assay: as above
Experimental: as §1, with “Laboratories Catalog” for “Laboratories, catalog”

recombinant human TL1A [7] = molecular target: T1, recombinant human TL1A; assay: as above
Experimental: as §1, with “Laboratories Catalog” for “Laboratories, catalog”

recombinant human TL1A [8] = molecular target: T3, recombinant human TL1A (human, UniProt O95150 71-251); assay: competition ELISA vs bio-TL1A-0002
T3 construct: homotrimer; biotinylated for SPR capture; the ELISA paragraphs say only 'recombinant TL1A'; also called TNFSF15
T3 chain: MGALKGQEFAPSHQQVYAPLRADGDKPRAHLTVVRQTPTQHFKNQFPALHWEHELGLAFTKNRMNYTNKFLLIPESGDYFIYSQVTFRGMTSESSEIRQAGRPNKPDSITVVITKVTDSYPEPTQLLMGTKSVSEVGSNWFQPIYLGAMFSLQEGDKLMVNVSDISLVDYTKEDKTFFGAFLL

recombinant human TL1A [9] = molecular target: T3, recombinant human TL1A; assay: competition ELISA vs bio-TL1A-0002
Experimental: as §1

recombinant human TL1A [10] = molecular target: T3, recombinant human TL1A; assay: ELISA, biotinylated antibody on coated recombinant TL1A
recombinant human TL1A [11] = molecular target: T3, recombinant human TL1A; assay: cell-based or functional assay
bovine serum albumin = molecular target: T4, bovine serum albumin (bovine, UniProt P02769 25-607); assay: direct binding ELISA on coated BSA
T4 construct: also called BSA
T4 sequence (P02769 25-607 limits assumed): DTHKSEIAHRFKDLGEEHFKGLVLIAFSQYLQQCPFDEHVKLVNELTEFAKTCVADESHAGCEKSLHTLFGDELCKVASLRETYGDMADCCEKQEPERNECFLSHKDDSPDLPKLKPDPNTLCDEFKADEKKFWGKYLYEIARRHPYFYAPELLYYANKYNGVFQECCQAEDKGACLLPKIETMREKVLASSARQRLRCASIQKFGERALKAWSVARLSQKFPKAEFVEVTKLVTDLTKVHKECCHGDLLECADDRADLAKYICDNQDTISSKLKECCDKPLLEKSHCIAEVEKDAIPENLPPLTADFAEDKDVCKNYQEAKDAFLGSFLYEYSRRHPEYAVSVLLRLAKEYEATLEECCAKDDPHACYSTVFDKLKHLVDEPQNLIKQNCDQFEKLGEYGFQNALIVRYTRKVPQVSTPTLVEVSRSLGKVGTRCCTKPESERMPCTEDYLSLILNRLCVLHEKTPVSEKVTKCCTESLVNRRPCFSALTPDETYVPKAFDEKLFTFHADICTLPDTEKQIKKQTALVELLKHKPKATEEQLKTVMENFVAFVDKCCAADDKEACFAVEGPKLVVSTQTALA
Experimental: (§2) For the direct binding ELISA method to HSA or BSA, 96-well high binding plates (Corning, product number 3590) were coated with 1 μg/mL recombinant HSA or BSA in 100 μL/well in PBS overnight at 4° C. Plates were then blocked in PBS+0.02% casein solution and washed with PBS+0.05% Tween-20 following standard ELISA protocol. […] Plates were washed with PBS+0.05% Tween-20 following standard ELISA protocol, and goat anti-human IgG-Fc HRP conjugated secondary antibody (Pierce, #31413) diluted to 1:10,000 in assay buffer was added to plates and incubated for 1 hour at room temperature. Next, the plates were washed with PBS+0.05% Tween-20 following standard ELISA protocol, and then TMB substrate (BioFX Laboratories, catalog number TMBW-0100-01) was added to plates.
(§3) Reactions were stopped after approximately 5 minutes by adding 0.18 M ortho-phosphoric acid to each well and absorbance was read at 450 nm. […] For this method, samples diluted to 0.3 mg/mL were dispensed into the sample tray of a MicroCal VP-Capillary DSC with Autosampler (Malvern Instruments, Inc.), equilibrated for 5 minutes at 10° C. and then scanned up to 110° C. at a rate of 100° C. per/hour. A filtering period of 16 seconds was selected. Raw data was baseline corrected and the protein concentration was normalized. Origin Software 7.0 (Origin Lab Corporation, Northampton, MA) was used to fit the data to an MN2-State Model with an appropriate number of transitions.

human serum albumin = molecular target: T5, human serum albumin (human, UniProt P02768 25-609); assay: direct binding ELISA on coated HSA
T5 construct: also called HSA
Experimental: as §2, §3

[12] = molecular target: T6, recombinant cynomolgus monkey TL1A (cynomolgus monkey, UniProt O95150 72-251 (human entry)); assay: SPR, antibody injected over captured biotinylated TL1A, 37° C.
T6 construct: biotinylated for SPR capture; also called cyno TL1A
T6 chain: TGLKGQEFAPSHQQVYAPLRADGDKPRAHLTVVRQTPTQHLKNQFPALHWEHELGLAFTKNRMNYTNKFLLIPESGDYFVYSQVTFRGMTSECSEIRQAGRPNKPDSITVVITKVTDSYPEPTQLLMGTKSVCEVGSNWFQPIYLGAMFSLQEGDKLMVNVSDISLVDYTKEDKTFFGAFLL
Experimental: (§4) For these analyses, kinetic assays were conducted at 37° C. using a collection rate of 10 Hz on a Biacore™ T200 instrument (GE Healthcare). […] The association phase was 90 seconds, and the dissociation phases were 1600 seconds over human, cynomolgus monkey and rabbit TL1A and 180 seconds for mouse and rat TL1A.
(§5) In order to determine binding to TL1A, kinetic assays were conducted at 37° C. using a collection rate of 10 Hz on a Biacore™ T200 instrument (GE Healthcare).

recombinant mouse TL1A = molecular target: T7, recombinant mouse TL1A (mouse, UniProt Q5UBV8 75-252); assay: as above
T7 construct: biotinylated for SPR capture
T7 chain: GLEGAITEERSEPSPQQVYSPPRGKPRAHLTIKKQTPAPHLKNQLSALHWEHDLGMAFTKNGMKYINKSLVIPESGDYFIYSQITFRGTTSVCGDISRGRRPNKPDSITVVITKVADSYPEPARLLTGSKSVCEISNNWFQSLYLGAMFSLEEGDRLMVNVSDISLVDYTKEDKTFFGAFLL
Experimental: as §4, §5

TF-1 NF-κB reporter cell bioassay IC50 (recombinant human TL1A [1]): 29.2 nM
TF-1 NF-κB reporter cell bioassay, Bioactivity relative to TL1A-0002 (recombinant human TL1A [1]): 0.8 fold
Whole blood IFNγ assay IC50 (recombinant human TL1A [1]): 0.755 nM
Whole blood IFNγ assay, Bioactivity relative to TL1A-0002 (recombinant human TL1A [1]): 0.9 fold
Bioactivity relative to TL1A-0002 (recombinant human TL1A [2]): 1.3 fold
IC50 (recombinant human TL1A [2]): 6.8 nM
binding result [3]: binds
IC50 (read off the curve) (recombinant human TL1A [4]): ~4 nM
IC50 (read off the curve) (recombinant human TL1A [5]): ~7 nM
IC50 (read off the curve) (recombinant human TL1A [6]): ~4 nM
IC50 (read off the curve) (recombinant human TL1A [7]): ~4 nM
B1: TL1A-0260 (antibody, human IgG1, kappa, V domains shown)
VH: QVQLVQSGAEVKKPGASVKVSCKASGYDYTYYGISWVRQAPGQGLEWMGWISTYNTGTHYAPSLQGRVTMTTDTSTSTAYMELRSLRSDDTAVYYCARESYYGSGAFRGGMDVWGQGTTVTVSS
VL: DIQMTQSPSSLSASVGDRVTITCRASQSVSSYLAWYQQKPGKAPKLLIYDASNRATGVPSRFSGSGSGTDFTLTISSLQPEDFATYYCQQRSNWPWTFGQGTKVEIKR
notes: human IgG1 effector-function-minimized/kappa; also called bio-TL1A-0260 (biotinylated reporter)

Bioactivity relative to TL1A-0002 (recombinant human TL1A [8]): 1 fold
IC50 (recombinant human TL1A [8]): 4.5 nM
Bioactivity relative to TL1A-0002 (recombinant human TL1A [9]): 1 fold
IC50 (recombinant human TL1A [9]): 4.5 nM
EC50 (recombinant human TL1A [10]): 5 ng/mL
B2: TL1A-0002 (antibody, human IgG1, kappa, V domains shown)
VH: QVQLVQSGAEVKKPGASVKVSCKASGYDFTYYGISWVRQAPGQGLEWMGWISTYNGNTHYARMLQGRVTMTTDTSTRTAYMELRSLRSDDTAVYYCARENYYGSGAYRGGMDVWGQGTTVTVSS
VL: EIVLTQSPATLSLSPGERATLSCRASQSVSSYLAWYQQKPGQAPRLLIYDASNRATGIPARFSGSGSGTDFTLTISSLEPEDFAVYYCQQRSNWPWTFGQGTKVEIKR
notes: human IgG1/kappa, effector function minimized; also called bioTL1A-0002 (biotinylated)

binding result [3]: no binding (tested: 20 ug/mL)
binding result (recombinant human TL1A [5]): no binding (tested: 300 nM)
B3: [xTL1A]-0341 (antibody, human IgG1, kappa, V domains shown)
VH: QVQLVQSGAEVKKPGASVKVSCKASGYTFTSYGISWVRQAPGQGLEWMGWISAYNGNTNYAQKLQGRVTMTTDTSTSTAYMELRSLRSDDTAVYYCARESSYGSEAFRAGMDVWGQGTTVTVSS
VL: DIQMTQSPSSLSASVGDRVTITCRASQSVSSYLAWYQQKPGKAPKLLIYDASNRATGVPSRFSGSGSGTDFTLTISSLQPEDFATYYCQQRSNWPWTFGQGTKVEIKR
notes: bivalent disabled antibody, IgG1 effector-function-minimized/kappa

NF-κB assay in TF-1 reporter cells, neutralization relative to TL1A-0002 (recombinant human TL1A [11]): ≤ 2 fold
binding result (bovine serum albumin): no binding (tested: 0.5-1000 nM)
binding result (human serum albumin): no binding (tested: 0.5-1000 nM)
fold higher affinity to human TL1A than to this TL1A [12]: ~2 fold
fold higher affinity to human TL1A than to this TL1A (recombinant mouse TL1A): ~546 fold
B4: TL1A-0372 monovalent bispecific antibody (bispecific antibody, human IgG1, kappa)
heavy 1: QVQLVQSGAEVKKPGASVKVSCKASGYDYTYYGISWVRQAPGQGLEWMGWISTYNTGTHYAPSLQGRVTMTTDTSTSTAYMELRSLRSDDTAVYYCARESYYGSGAFRGGMDVWGQGTTVTVSSASTKGPSVFPLAPSSKSTSGGTAALGCLVKDYFPEPVTVSWNSGALTSGVHTFPAVLQSSGLYSLSSVVTVPSSSLGTQTYICNVNHKPSNTKVDKKVEPKSCDKTHTCPPCPAPEAAGAPSVFLFPPKPKDTLMISRTPEVTCVVVDVSHEDPEVKFNWYVDGVEVHNAKTKPREEQYNSTYRVVSVLTVLHQDWLNGKEYKCKVSNKALPAPIEKTISKAKGQPREPQVCTLPPSREEMTKNQVSLWCLVKGFYPSDIAVEWESNGQPENNYKTTPPVLDSDGSFFLYSKLTVDKSRWQQGNVFSCSVLHEALHSHYTQKSLSLSPGK
heavy 2: not shown
light: not shown
notes: KiH, LS
